Our source for the activity values is patent publication US20240011005A1 (HUIDAGENE THERAPEUTICS, published 2024).

Holding throughout (assay): cell_activity
In data set [1] the target is T1, Un1Cas12f1_ge4.1 (Uncultured bacterium) (UniProt A0A482D308).
T1 sequence: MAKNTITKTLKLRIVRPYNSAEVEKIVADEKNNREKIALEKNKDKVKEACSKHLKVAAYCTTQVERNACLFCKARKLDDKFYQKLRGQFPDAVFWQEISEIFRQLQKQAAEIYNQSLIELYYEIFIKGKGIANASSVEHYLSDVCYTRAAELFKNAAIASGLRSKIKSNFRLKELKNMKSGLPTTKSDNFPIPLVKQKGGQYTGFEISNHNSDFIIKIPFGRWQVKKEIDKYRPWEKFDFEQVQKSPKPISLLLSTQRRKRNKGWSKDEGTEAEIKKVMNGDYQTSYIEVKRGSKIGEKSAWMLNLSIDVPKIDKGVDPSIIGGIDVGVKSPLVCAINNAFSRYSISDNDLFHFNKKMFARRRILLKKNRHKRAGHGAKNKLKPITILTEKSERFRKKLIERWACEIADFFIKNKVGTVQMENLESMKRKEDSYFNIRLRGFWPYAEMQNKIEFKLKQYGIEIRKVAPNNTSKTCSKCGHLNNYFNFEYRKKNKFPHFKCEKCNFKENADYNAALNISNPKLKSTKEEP
The following applies: PAM TTTG per Table 1; 36.1 in Rh screen.

The subject of data set [2] is T2, OsCas12f1-S141R S141R (Oscillibacter sp.).
T2 sequence: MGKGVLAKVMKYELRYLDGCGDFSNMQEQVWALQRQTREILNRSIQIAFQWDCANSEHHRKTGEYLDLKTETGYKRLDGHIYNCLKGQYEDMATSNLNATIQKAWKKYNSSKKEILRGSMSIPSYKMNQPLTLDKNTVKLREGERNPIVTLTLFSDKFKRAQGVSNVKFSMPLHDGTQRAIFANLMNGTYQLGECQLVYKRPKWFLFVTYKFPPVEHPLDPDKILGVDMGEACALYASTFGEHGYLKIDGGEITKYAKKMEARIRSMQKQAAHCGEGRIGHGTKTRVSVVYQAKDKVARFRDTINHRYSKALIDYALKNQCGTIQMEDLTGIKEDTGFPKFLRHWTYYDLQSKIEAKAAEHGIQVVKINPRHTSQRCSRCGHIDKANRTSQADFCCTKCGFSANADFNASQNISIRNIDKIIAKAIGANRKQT
The following applies: PAM TTTC.

Data set [3] relates to T3, OsCas12f1-D52R (Oscillibacter sp.).
T3 sequence: T2 sequence with D52R, R141S
Conditions: PAM TTTC; 1.31-fold in text.

For data set [4], the system named is T4, OsCas12f1-A54R A54R (Oscillibacter sp.).
T4 sequence: T2 sequence with A54R, R141S
The following applies: PAM TTTC.

In data set [5] the test system is T5, OsCas12f1-S119R S119R (Oscillibacter sp.).
T5 sequence: T2 sequence with S119R, R141S
Conditions: PAM TTTC.

In data set [6] the test system is T6, OsCas12f1-T132R T132R (Oscillibacter sp.).
T6 sequence: T2 sequence with T132R, R141S
The following applies: PAM TTTC.

Data set [7] relates to T7, OsCas12f1 (ME-B.3) (Oscillibacter sp.).
T7 sequence: T2 sequence with R141S
The following applies: PAM TTTC, HEK293T.

Numbering of substitutions follows the chain as printed.

In data set [1], “ACCGCUUCACUUAGAGUGAAGGUGGGCUGCUUGCAUCAGCCUAAUGUCGAGAAGUGCUUUCUUCGGAAAGUAACCCUCGAAACAAAGAAAGGAAUGCAACCCAUUACAGUAGGAGCAUACUUUUAUUUUUUU / TTTGCCATTACAGTAGGAGCATAC / GTATGCTCCTACTGTAATGGCAAA [Un1Cas12f1_ge4.1 sgRNA ; reporter insertion, TTTG PAM]” yielded an activity of 36.5 % GFP+.

As for “AGGGACGACUUCCCGUCCCAAAAUCGAGACAGUAGCCGUAAAACUUUGAGUUUCAGAGUGGGCGACACACUCGAAAAGGUUAAGAUAUGCACAUAGUAAUCCGUGCAUGAGCCGCGAAAGCGGCUUGAAGGCCAUUACAGUAGGAGCAUACUUUUAUUUUUUU / TTTCCCATTACAGTAGGAGCATACGGG / CCCGTATGCTCCTACTGTAATGGGAAA”, the activity in data set [2] amounted to 46.6 % GFP+; in data set [3] it was 52.8 % GFP+; in data set [4], 45.5 % GFP+; in data set [5], 46.3 % GFP+; in data set [6] it was 48.4 % GFP+; in data set [7], 38.7 % GFP+.
